From patent US10975360B2, “Process for the modification of alkanes, fatty acids and fatty alcohols” (priority 2016, dated 2021)

B1: CYP505Pe: CYP505 cytochrome P450 monooxygenase from Penicillium expansum, SEQ ID No 4 (protein, listed as Penicillium expansum)
chain: MKDMESIPGPKPLPVVGNLFDIDLENGLQSIIKMAHEFGPLFQITINGQKQIFATSQALVDELCDETRFHKAVMGGIQKLRMLAKDGLFTAYHGERGWGIAHRILMPAFGPLRIRDMFEDMSDVAQQLCFKWARQGSSTSINICDDFTRLTLDTIALCTMGFRLNSYYNSNALHPFIESMLYVLKEAELQSTLPGVANCMRVKAQRRMSKHIDAMRSMARNLIEERRAKPEPVDDLLNTLLNGRDPITGEGMSDDLIISNIITFLIAGHETTSGLLSFTFYYLLQNQDVLERARNEVDEVTGVGPITVQHLAKLPYIDAIMKESLRLMPTAPAFTVTPQKPEVLGGKWMINTGDSVNLLLPVCLRDETVFGPDAGEFRPNRMLEENFSKLPPNSWKPFGNGERGCIGRAFAWQEAQLVVALVLRTFDLAAEDPYYKLRIKETLTIKPDGFRIRATLRHGKSATALSQNNISVGAAASPASSTYLAGNENGRDAAGGQPVSFFYGSNSGTCKALTHRLASTMMTRGFTDQNIAPLDSAVDNLPRDQPTIIITTTYDGQPTDDAKKFVAWLESGNSPSLQGVSYAVFGCGHQDWTKTFYRIPILIDALMYKAGATRLATRGAANAAISDLFSDLEVWEETNLLPGLRESFNPPNNSNFVPLEPHQLQISINKPTRVGMHRDLIEAKVTAIRTLTSPGAPEKRHLEFCIPGETTLRPGDHLNILPVNPPSTVSRALARFNLAPDHSITFESSNALDLPQATPVSAAELFSSYLELSQPATRNNLKELASTTPSDGEKQELLHLYDSYDSLIRAKRASVLDLLEQFTSVTLPITTFISMLPALRVRTYSLSMAPSFKPLHYSLTFSVINEPAWNGNGRYLGVASNYLASLNLGSILYISPRPAKDAFHLPTDQSSKPIIMICAGSGLAPFRSFIQDRMLWQQQDKTLAKALLFFGCRSPQLDDLYHDELSQFEAAGVVEVRRAYSKVPNHYLAKGCRYVQHRLLTETETIQDMWAQDAIIYVCGSGNLAKGVKAVLESMLGTLSERYITEIF
B2: CYP505E1: CYP505 cytochrome P450 monooxygenase from Aspergillus niger, SEQ ID No 3 (protein, listed as Aspergillus kawachii)
chain: MKDAERIPGPKPLPVVGNLFDIDPEHSLESIVAFAEKFGPLFQITINGEKQIFATSQALVDELCDELRFHKAVVTGLEILRLLAHDGLFTAYHGERGWGIAHRILVPAFGPLRIRNMLDDMSDVAQQLCLKWARQGGSTSINITEDFTRLTLDTIALCTMGFRLNSFYNNETMHPFVQSMLYVLREADIQANLPGIANSIRVSAQRRMHKNIEAMRTMARGIIQERRKNKNPVDDILNTLLNGRDPVTGEGMSDDSIIDNVITFLIAGHETTSGLLSFTFYFLIQHPHILKKAQEEVDETVGLAQISAQHLAELPYIDAILKESLRLMPTAPGFTVTPKKTEVLGGRWMINAGQPVNVLLPACLRDQSVFGPDADEFRPERMLAENFSKLPPNSWKPFGNGERGCIGRAFAWQEAQLVVAMILQTFDLVPDDPSYQLRIKETLTIKPDGFRIRATLRRGQTATGLSRRSMLVARDGSSEESSNHPAEARGDHAPARGQPVSFFYGSNSGTCKALAHQLASNMMSRGYTTQKLAPLDNAVDNLPRDQPVIILTTTYDGQPTDNAKKFVAWLETGNVLSLQGISYAVFGCGHHDWTQTFYRIPILIDDLMYKAGATRLAPRGAANAAVSDLFSDLEAWEETSLLPALRENFLPSNSTDFDPLNPHQIQLSLSKPRRVDLHKGLIEAKVTAVRVLTSPDTPEKRHLEFCFQGDLSLRPGDHLNILPVNPPSTVSRVLAQFNLAPDYNITVNSFNTLGLPQATPVSASELFSSYVELCQPATRNNLKSLIAATQSDTVKQELNRLYDSYEFIVRDKRVSVLDLLEQFPSISLPIAAFISMLPALRVRTYSLSMAPAFKPSHSSLTFSVINEPAWRGSGQHLGVASNYLASLTSGSIFYFSPRPAKETFHLPKDPSRTPIIMICAGSGLAPFLSFIQDRMVLKQQNKPLAKAFLFFGCRGRSLDDLYHEELSEYEAAGVVEVRRAYSKTPEFDIAKGCRYVQHRLVTEGQAILSLWAQNAIIYVCGSTSMAKGAEAVLQNMLGPLPKERYVTEIF
B3: CYP505Ak: CYP505 cytochrome P450 monooxygenase from Aspergillus kawachii, SEQ ID No 2 (protein)
chain: MRDAERIPGPTPLPVVGNLFDIDLEHVLQSVIGLANKYGPLFQITINGEKQIFATSQALVDELCDESRFHKAVASGLENLRMLAHDGLFTAYHGERGWGIAHRILVPAFGPLRIQSMFDDMGDLAQQLCLKWARQGASNSINITDDFTRLTLDTIALCTMDFRLNSFYNNDTMHPFVESMLYVLREADVQSALPGIANSVRIMAHRRMLKNIEAMRTIARDIIHDRRKKENPADDLLNTLLNGRDPVTGEGMSDESIIDNVITFLVAGHETTSGLLSFTFYYLVQHPDILKKAQKEVDETVGQAQISVQHLAELPYIDAILKESLRMMPTAPGFTVTPKKAETLGGKWLLNAGQPINVLLPACLRDRSIFGPNADEFSPGRMLAENFSKLPPNSWKPFGNGERSCIGRAFAWQEAQLVVAMILQNFDLVPDDPSYTLRIKETLTIKPDGFRVRATLRHRQTATGLFQHTLSARNDTSLASSSAHFIKKSEDQAPAGGRPICFFYGSNSGTCKALAHRLASDLMPYGFTDQKLAVLDTAVDNLPRDQPVIILTTTYDGQPTDDAKKFVAWLESGKVPALQGISYAVFGCGHHDWTQTFYRIPTLIDELMHKAGATRLAPRGTANAAVSDLFSDLEAWEETSLLPALRETFLLSSSSDLEPLNLHQLQISLSKPRRIDLHKDLMEARVTTVRILTNPDTPEKRHIEFRFQGDTTLRPGDHVNVLPVNPPSTVLRVLAQFNLAPDYSITINSFNTLGLPQATPVSASELFSAYVELSQPATRNNLRILAATAQSDEDKQELIHLQDSYDSLVRDKRVSVLDLLEQFPSVSLPIAAFISMLPALRLRTYSLSLAPSFKPSHGSLTFSVVNEPARNGNRRYLGVGSNYLASLTPGSILYLSPRPAKEAFHLPVDQSRIPIIMICAGSGLAPFLSFIQDRMIWQQQDKPLARALLFFGCGGRFLDDLYHEELSEFEAAGVVDVRRAYSKVLDYDMARGCKYVQDRLVAEANAIRHLWAQDATIYVCGSADMAKGVEGVLEKLLGMLPRERYVTEIYQMQTRDNVSEWLI
modifications: Aspergillus niger

Key:
[1] = assay type: cell-based, P. pastoris
Experimental: (§1) Precultures of P. pastoris transformants were prepared in buffered complex glycerol media (BMGY). BMGY contained: 10 g/l yeast extract, 20 g/l peptone, 3.4 g/l yeast nitrogen base, 10 g/l ammonium sulfate, 100 mM potassium phosphate (pH 6), 0.4 mg/l biotin and 1% (v/v) glycerol. Erlenmeyer flasks (500 ml) containing 50 ml BMGY media were inoculated with single colonies of 24 h old YPD-agar cultures of P. pastoris KM71 mut^s3/CYP505E3 and incubated at 30° C. and 225 rpm for 24 h. The cultures were harvested using pre-weighed centrifuge tubes at 3000 g for 5 min and stored on ice until further use.
(§2) The main cultures for expression were prepared in buffered complex methanol media (BMMY) containing 10 g/l yeast extract, 20 g/l peptone, 3.4 g/l yeast nitrogen base, 10 g/l ammonium sulfate, 100 mM potassium phosphate (pH 6), 0.4 mg/l biotin and 0.5 or 1% (v/v) methanol. Harvested cells from precultures were resuspended in BMMY media to final concentration of 1 g WC per 40 ml (appx. 25 g/l). The resuspended cultures (100 ml) were transferred to 500 ml Erlenmeyer flasks and incubated at 25° C. and 225 rpm for 24 h. The cultures were then harvested at 3000 g for 5 min using pre-weighed centrifuge tubes.
(§3) Different transformants of Pichia pastoris KM71 harbouring the CYP505 genes for SEQ ID Nos 1 to 7 and 9 to 12 were grown and harvested as described above. The harvested cells were resuspended to give 1 g wet cell weight in 40 ml MOPS buffer (200 mM, 100 mM glucose, 100 mM glycerol, pH 8) and 1 ml aliquots of these cell suspensions were transferred to 40 ml amber vials. Dodecane, 1-dodecanol and 1-tetradecanol were added neat to these cell suspensions to give final concentrations of 200 mM in the case of the alcohols and 1 M in the case of dodecane while in the case of dodecanoic acid 20 μl of a 500 mM stock solution (in DMSO) was added to give a final concentration of 10 mM. Transformants harbouring the CYP505 genes for SEQ ID Nos 1 to 4 were tested for the biotransformation of 1-dodecanol, 1-tetradecanol, dodecanoic acid, tetradecanoic acid and dodecane, while those harbouring the CYP505 genes for SEQ ID Nos 5 to 7 and 9 to 12 were only tested for the biotransformation of 1-dodecanol and dodecanoic acid. The biotransformations were incubated at 25° C. and 225 rpm for 24 h. Extractions were performed using ethyl acetate (500 μl×2). The extracts were analyzed using GC/MS.

[2] = Whole cell biotransformation of dodecane by CYP505s expressed in P. pastoris; assay type: cell-based; settings: whole cells of P. pastoris; for products produced from dodecane (GC-MS): 1 M dodecane, 24 h; for ω-7 hydroxylase activity C12alk: C12 alkane, GC-MS peak height
Experimental: as §1, §2, §3

| Molecule | products produced from tetradecanoic acid (GC-MS) [1] | ω-7 hydroxylase activity C14o [1] | products produced from dodecane (GC-MS) [2] | ω-7 hydroxylase activity C12alk [2] |
| --- | --- | --- | --- | --- |
| B1 | only 7-hydroxy tetradecanoic acid | − | 5-dodecanol | ++ (++ 0.1 million < RA < 1 million) |
| B2 | only 7-hydroxy tetradecanoic acid | − | 5-dodecanol | + (+ − 0.01 million < RA < 0.1 million) |
| B3 | only 7-hydroxy tetradecanoic acid |  | 5-dodecanol | ++ (++ 0.1 million < RA < 1 million) |
